Sequences and labels used below:
T1: AmtR (Corynebacterium glutamicum ATCC 14067, UniProt H7C699 1-222)
T1 sequence: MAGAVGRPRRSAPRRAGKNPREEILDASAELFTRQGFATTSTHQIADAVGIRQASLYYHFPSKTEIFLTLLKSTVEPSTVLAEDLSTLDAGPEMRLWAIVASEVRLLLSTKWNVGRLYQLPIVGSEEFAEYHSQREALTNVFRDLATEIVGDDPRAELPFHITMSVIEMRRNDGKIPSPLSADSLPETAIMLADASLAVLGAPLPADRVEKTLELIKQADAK

B1: PhyuB-1 (dsDNA)
DNA 1: TTGAAAACTTTTCGATAGAGCAATAGAAATTTCCCAGCCCAA
DNA 2: TTGGGCTGGGAAATTTCTATTGCTCTATCGAAAAGTTTTCAA
B2: PhyuB-2 (dsDNA)
DNA 1: CCCGGGGTGATTTTCTATCGTGTGATAGGTTTAATTCTGTTG
DNA 2: CAACAGAATTAAACCTATCACACGATAGAAAATCACCCCGGG
B3: PcreT-2 (oligos PcrnT-2-S/A) (dsDNA)
DNA 1: ATTTATATTCTTTTCTATCACCCTATAGAAACATATTGGACG
DNA 2: CGTCCAATATGTTTCTATAGGGTGATAGAAAAGAATATAAAT
B4: PcreT-1 (oligos PcrnT-1-S/A) (dsDNA)
DNA 1: ACCACCAATGAAACCTATCGGTCTATAGAAATTGACATTGCT
DNA 2: AGCAATGTCAATTTCTATAGACCGATAGGTTTCATTGGTGGT

For this data set, the target named is T1, AmtR. The experiment in a line: EMSA; EMSA, 20 ul: 10 mM Tris pH 7.0, 50 mM KCl, 1 mM DTT, 5 mM MgCl (so in the source), 10 mM EDTA, 2.5% glycerol, 0.05% NP-40, 50 ng/ul poly(dIdC); 100 ng DNA, 0-0.8 ug AmtR; 6% native PAGE, 0.5x TBE, GelRed; temperature not stated. To be noted: protein: recombinant; tags: C-terminal His6; chain copies: 2; blunt. (A gel shift assay detects complexes by their altered migration in electrophoresis.)
Turning to B1, the binding result is listed as “binds”.

In the case of B2, the binding result is reported as “binds”.

For the molecule B3, the binding result is recorded as “binds”.

In the case of B4, the binding result is on record as “binds”.

The record behind these values is PMC8864220, “Transcriptional Regulation of the Creatine Utilization Genes of Corynebacterium glutamicum ATCC 14067 by AmtR, a Central Nitrogen Regulator”.
